Laboratory results reported in patent publication WO2020241660A1 (dated 2020).

Target: T1, peptide consisting of amino acid residues 44-72 of the human eIF5A protein (human, UniProt P63241 44-72)
T1 construct: range 44-72; also called human eIF5A (44-72) peptide
Assay: ELISA, screening of hybridoma antibodies on the peptide

T1 sequence (P63241 44-72 limits assumed): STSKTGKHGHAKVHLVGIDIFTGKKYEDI

B1: anti-ORAIP antibody (clone YSP5-45-36) (antibody, V domains shown)
VH: EVKLVESGGGLVQPGGSLRLSCATSGFTFTDYYMSWARQPPGKALEWLGFIRNKANGYTTEYSASVKGRFTISRDNSLGILYLQMNTLRPEDSATYYCARNYYGTSFSWFAYWGQGTLVTVSA
VL: MTQTPLSLSVSLGDQASISCRSSQSIVHFNGNTYLEWYLQKPGQSPKLLIYKVSSRFSGVPDRFSGSGSGTDFTLKISRVEAEDLGVYYCFQGSHVPPTFGGGTKLEIK
notes: Mouse monoclonal antibody from a hybridoma (mouse IgG H and L chain primers were used for cloning); also called neutralizing antibody against secretory eIF5A
  binding result: binds
